By Kd is commonly meant the equilibrium constant for the complex coming apart. Higher therefore signals a looser complex.

This is an account of results in patent publication WO2012007688A1 (dated 2012).

This test addresses T1, fragment C of tetanus toxoid (Sigma, T3694) (Clostridium tetani, UniProt P04958 865-1315).
T1 sequence: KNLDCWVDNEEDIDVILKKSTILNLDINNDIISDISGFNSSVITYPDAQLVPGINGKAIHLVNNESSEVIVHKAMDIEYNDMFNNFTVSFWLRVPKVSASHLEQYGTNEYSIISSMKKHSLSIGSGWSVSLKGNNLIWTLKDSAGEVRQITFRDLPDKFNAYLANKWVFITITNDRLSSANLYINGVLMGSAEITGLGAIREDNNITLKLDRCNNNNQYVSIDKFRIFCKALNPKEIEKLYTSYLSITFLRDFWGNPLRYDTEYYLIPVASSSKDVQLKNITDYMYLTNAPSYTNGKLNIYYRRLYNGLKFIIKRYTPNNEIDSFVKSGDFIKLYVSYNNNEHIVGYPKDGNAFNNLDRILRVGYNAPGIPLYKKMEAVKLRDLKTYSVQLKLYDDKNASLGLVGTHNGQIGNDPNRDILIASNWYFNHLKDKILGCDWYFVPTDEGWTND

B1: Antibody 4 (human monoclonal antibody against tetanus toxin) (antibody, V domains shown)
VH: EVQLVESGGGLVQPGGSLRLSCAASGFSFSRHWMSWVRQAPGKGLEWVANIHYDLSEKYFVDSVRGRFTISRDNAKNSLYLEMNSLRADDTAVYYCARGGRSTVWPRGWFDLWGQGTLVTVSS
VL: EIVLTQSPGTLSLSPGERATLSCRASQSVSSSYLAWYQQKPGQAPRLLIYGASGRATGIPDRFSGSGSGTHFTLTISRLEPEDFAVYFCQQFADSRTFGQGTKLEIKR
B1 came in with an equilibrium dissociation constant (Kd) of 34 nM.

B2: Antibody 5 (human monoclonal antibody against tetanus toxin) (antibody, V domains shown)
VH: QLVQSGAEVKKPGSSVKVSCKASGGTLSGFAINWVRQAPGQGLEWMGGIIPDTGSPTYVQRFQGRVTMTADKSTSTAYMELNSLRSDDTAVYYCARSVMITFGGVLTPPNFDFWGQGTLVTVSS
VL: DIQMTQSPSSLSASVGDRVTISCRASQAISIYLNWYQQRPGKAPRLLIYAASNLQSGVPSRFSASGSGTDFTLTISSLQPEDFATYYCQQSKENPPTFGQGTKLEIKR
As for B2, the dissociation constant Kd is 0.16 nM.
